Laboratory results reported in patent US5750344A, “Method for selection of biologically active peptide sequences” (priority 1995, dated 1998).

Assays:
[1] = molecular target: T1, urokinase plasminogen activator receptor (uPAR) (Homo sapiens, UniProt Q03405); experiment: Binding of individual phage clones to Sf9 cells expressing fluPAR (% recovery); conditions: for % Recovery uPAR: phage clone displaying the peptide, Sf9 cells expressing full length uPAR (fluPAR); for Specificity (uPAR/SPR): ratio of % recovery on uPAR Sf9 cells to % recovery on SPR Sf9 cells
T1 construct: 10^6 Sf9 cells expressing full length uPAR ("fluPAR", day 2 post infection); expressed in transfected cells; host or cells: Sf9 insect cells (baculovirus-infected)
T1 sequence (Q03405 23-335, species assumed): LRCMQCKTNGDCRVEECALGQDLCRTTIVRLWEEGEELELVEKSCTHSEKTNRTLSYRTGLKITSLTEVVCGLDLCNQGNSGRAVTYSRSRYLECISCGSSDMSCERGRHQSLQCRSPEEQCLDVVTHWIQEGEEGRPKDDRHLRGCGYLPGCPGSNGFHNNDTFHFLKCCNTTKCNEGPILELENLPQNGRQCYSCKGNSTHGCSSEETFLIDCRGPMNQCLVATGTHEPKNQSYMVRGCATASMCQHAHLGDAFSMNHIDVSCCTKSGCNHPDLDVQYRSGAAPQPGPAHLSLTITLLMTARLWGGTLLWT
Description: (§1) 1.) 15mer phage (2.5×10^10) prepared as described above were selected by coincubation with 10^6 Sf9 cells expressing full length uPAR ("fluPAR", day 2 post infection) at room temperature for 60 minutes in Grace's medium with 2% nonfat milk. Binding phage were eluted with 6M urea (pH 2.2), the pH neutralized by adding 2M Tris-HCl, and assayed. The yield of binding phage was 0.0013% (3.3×10^5 pfu). The phage were amplified on solid agar plates as plaques, eluted with Tris-buffered saline, and precipitated with polyethylene glycol.
(§2) 3.) The phage selected in round 2 were reselected on Sf9 cells expressing fluPAR (day 2 post-infection) as described for round 1 (2.8×10^10 phage on 10^6 Sf9 cells). The yield of binding phage from this round was 5.40% (1.5×10^9 pfu), indicating a substantial enrichment in binding phage. Phage from the urea eluate were cloned, and the DNA isolated and sequenced. Binding by individual phage clones was assayed against Sf9 cells expressing fluPAR, and Sf9 cells expressing substance P receptor (as a control).

substance P receptor = molecular target: T2, substance P receptor (Homo sapiens, UniProt P25103); experiment: Binding of individual phage clones to Sf9 cells expressing substance P receptor (control); conditions: phage clone displaying the peptide
T2 construct: expressed in transfected cells; host or cells: Sf9 insect cells
T2 sequence (P25103 whole entry, species assumed): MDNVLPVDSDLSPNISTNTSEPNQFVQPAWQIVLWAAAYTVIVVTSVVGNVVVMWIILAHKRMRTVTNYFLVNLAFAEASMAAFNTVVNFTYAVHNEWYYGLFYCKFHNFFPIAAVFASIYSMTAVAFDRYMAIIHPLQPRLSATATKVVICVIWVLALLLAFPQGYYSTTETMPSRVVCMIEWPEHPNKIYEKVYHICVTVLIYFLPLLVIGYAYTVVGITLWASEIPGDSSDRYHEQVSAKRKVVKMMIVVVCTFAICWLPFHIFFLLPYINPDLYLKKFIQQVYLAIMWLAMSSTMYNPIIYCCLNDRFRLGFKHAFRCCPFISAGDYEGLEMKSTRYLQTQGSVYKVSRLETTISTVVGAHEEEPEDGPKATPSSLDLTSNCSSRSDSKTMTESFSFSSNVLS
Description: as §1, §2

AESSLWTRYAWPSMPSY (displayed on phage)
% Recovery uPAR [1]: 12.1%
Specificity (uPAR/SPR) [1]: 47
% Recovery SPR (substance P receptor): 0.260%

AEMHRSLWEWYVPNQSA (displayed on phage)
% Recovery uPAR [1]: 4.2%
Specificity (uPAR/SPR) [1]: 105
% Recovery SPR (substance P receptor): 0.040%

AESQTGTLNTLFWNTLR (displayed on phage)
% Recovery uPAR [1]: 2.8%
Specificity (uPAR/SPR) [1]: 350
% Recovery SPR (substance P receptor): 0.008%

AESLPTLTSILWGKESV (displayed on phage)
% Recovery uPAR [1]: 0.5%
Specificity (uPAR/SPR) [1]: 23
% Recovery SPR (substance P receptor): 0.022%

AECLNGGTAVSNKYFSNIHWCN (displayed on phage) [reference compound]
% Recovery uPAR [1]: 6.8%
Specificity (uPAR/SPR) [1]: 850
% Recovery SPR (substance P receptor): 0.008%

AEPLDLWSLYSLPPLAM (displayed on phage)
% Recovery uPAR [1]: 6.0%
Specificity (uPAR/SPR) [1]: 63
% Recovery SPR (substance P receptor): 0.095%

AESSLWRIFSPSALMMS (displayed on phage)
% Recovery uPAR [1]: 3.5%
Specificity (uPAR/SPR) [1]: 50
% Recovery SPR (substance P receptor): 0.070%

AEPMPHSLNFSQYLWYT (displayed on phage)
% Recovery uPAR [1]: 2.2%
Specificity (uPAR/SPR) [1]: 28
% Recovery SPR (substance P receptor): 0.080%

AEWHPGLSFGSYLWSKT (displayed on phage)
% Recovery uPAR [1]: 5.7%
Specificity (uPAR/SPR) [1]: 168
% Recovery SPR (substance P receptor): 0.034%

AEPALLNWSFFFNPGLH (displayed on phage)
% Recovery uPAR [1]: 4.7%
Specificity (uPAR/SPR) [1]: 47
% Recovery SPR (substance P receptor): 0.100%
